Patent US20220204580A1 (AstraZeneca / MedImmune, published 2022)
Numbered stars: 1 amine (or outer) side, 2 acyl side, 3 side chain; on linkers, the order of the positions; unused ones are H or OH. Bridge positions count the residues as written; N and C are the ends. Square brackets hold non-standard residues; d marks the D form. Side chains are listed from the residue outwards. Ends that are not written are not given here. * marks the point of attachment. C18 diacid = O=C(O)CCCCCCCCCCCCCCCCC(=O)*; γGlu = O=C(O)[C@H](CCC(=O)[*:2])N[*:1]; Aib = CC(C)(N)C(=O)O

Experiments:
[1] = molecular target: T1, human amylin receptor (calcitonin receptor co-expressed with receptor activity modifying protein, RAMP3) (human, UniProt P30988 25-474; O60896 24-148); assay: cell-based or functional assay
T1 sequence (looked up) 1: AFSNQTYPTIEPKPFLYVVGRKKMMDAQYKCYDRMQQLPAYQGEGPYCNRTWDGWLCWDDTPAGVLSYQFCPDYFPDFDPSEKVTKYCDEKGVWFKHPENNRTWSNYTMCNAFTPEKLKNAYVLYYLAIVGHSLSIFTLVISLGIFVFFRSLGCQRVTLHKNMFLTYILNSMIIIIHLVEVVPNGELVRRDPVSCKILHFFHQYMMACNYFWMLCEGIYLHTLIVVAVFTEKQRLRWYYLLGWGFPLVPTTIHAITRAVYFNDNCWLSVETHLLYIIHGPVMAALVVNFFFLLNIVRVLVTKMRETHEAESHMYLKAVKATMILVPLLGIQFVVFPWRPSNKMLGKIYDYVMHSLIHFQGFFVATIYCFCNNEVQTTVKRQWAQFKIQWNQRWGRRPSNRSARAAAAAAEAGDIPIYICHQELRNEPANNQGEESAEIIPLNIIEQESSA
T1 sequence (looked up) 2: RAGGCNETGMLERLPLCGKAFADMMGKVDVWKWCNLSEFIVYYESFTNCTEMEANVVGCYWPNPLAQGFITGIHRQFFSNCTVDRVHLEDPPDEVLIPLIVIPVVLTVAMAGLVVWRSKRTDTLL

[2] = molecular target: T2, human calcitonin receptor (human, UniProt P30988 25-474); assay: cell-based or functional assay
T2 sequence (looked up): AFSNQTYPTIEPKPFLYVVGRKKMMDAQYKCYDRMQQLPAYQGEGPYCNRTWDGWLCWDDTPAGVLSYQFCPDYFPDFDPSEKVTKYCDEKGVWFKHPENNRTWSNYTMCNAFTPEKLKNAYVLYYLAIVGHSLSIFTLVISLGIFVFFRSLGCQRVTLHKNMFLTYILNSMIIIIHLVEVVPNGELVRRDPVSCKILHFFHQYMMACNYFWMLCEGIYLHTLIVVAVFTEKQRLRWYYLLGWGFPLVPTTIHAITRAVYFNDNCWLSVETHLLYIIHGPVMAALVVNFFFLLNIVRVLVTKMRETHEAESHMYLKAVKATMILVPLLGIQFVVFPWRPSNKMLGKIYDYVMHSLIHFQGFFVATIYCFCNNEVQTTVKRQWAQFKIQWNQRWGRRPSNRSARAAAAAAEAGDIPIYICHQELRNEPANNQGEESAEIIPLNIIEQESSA

B1: Peptide 71 (SEQ ID NO: 71) (peptide)
peptide: {C18 diacid}-[γGlu]KCNTATCATQRLANFLVHSS[Aib]NFGPILPPTRVGSNTY-NH2
modifications: disulfide 3-8
SMILES: CC[C@H](C)[C@H](NC(=O)[C@@H]1CCCN1C(=O)CNC(=O)[C@H](Cc1ccccc1)NC(=O)[C@H](CC(N)=O)NC(=O)C(C)(C)NC(=O)[C@H](CO)NC(=O)[C@H](CO)NC(=O)[C@H](Cc1c[nH]cn1)NC(=O)[C@@H](NC(=O)[C@H](CC(C)C)NC(=O)[C@H](Cc1ccccc1)NC(=O)[C@H](CC(N)=O)NC(=O)[C@H](C)NC(=O)[C@H](CC(C)C)NC(=O)[C@H](CCCNC(=N)N)NC(=O)[C@H](CCC(N)=O)NC(=O)[C@@H](NC(=O)[C@H](C)NC(=O)[C@@H]1CSSC[C@H](NC(=O)[C@H](CCCCN)NC(=O)CC[C@H](NC(=O)CCCCCCCCCCCCCCCCC(=O)O)C(=O)O)C(=O)N[C@@H](CC(N)=O)C(=O)N[C@@H]([C@@H](C)O)C(=O)N[C@@H](C)C(=O)N[C@@H]([C@@H](C)O)C(=O)N1)[C@@H](C)O)C(C)C)C(=O)N[C@@H](CC(C)C)C(=O)N1CCC[C@H]1C(=O)N1CCC[C@H]1C(=O)N[C@H](C(=O)N[C@@H](CCCNC(=N)N)C(=O)N[C@H](C(=O)NCC(=O)N[C@@H](CO)C(=O)N[C@@H](CC(N)=O)C(=O)N[C@H](C(=O)N[C@@H](Cc1ccc(O)cc1)C(N)=O)[C@@H](C)O)C(C)C)[C@@H](C)O
EC50 (cAMP production) [1]: 211 pM | Ratio (EC50 hCTR / EC50 hAMYR3) [1]: 7 | EC50 (cAMP production) [2]: 1380 pM

B2: Peptide 72 (SEQ ID NO: 72) (peptide)
peptide: K([γGlu-γGlu-C18 diacid])CNTATCATQRLANFLVHSS[Aib]NFGPILPPTNVGSRTY-NH2
modifications: disulfide 2-7; N-terminus assumed
SMILES: CC[C@H](C)[C@H](NC(=O)[C@@H]1CCCN1C(=O)CNC(=O)[C@H](Cc1ccccc1)NC(=O)[C@H](CC(N)=O)NC(=O)C(C)(C)NC(=O)[C@H](CO)NC(=O)[C@H](CO)NC(=O)[C@H](Cc1c[nH]cn1)NC(=O)[C@@H](NC(=O)[C@H](CC(C)C)NC(=O)[C@H](Cc1ccccc1)NC(=O)[C@H](CC(N)=O)NC(=O)[C@H](C)NC(=O)[C@H](CC(C)C)NC(=O)[C@H](CCCNC(=N)N)NC(=O)[C@H](CCC(N)=O)NC(=O)[C@@H](NC(=O)[C@H](C)NC(=O)[C@@H]1CSSC[C@H](NC(=O)[C@@H](N)CCCCNC(=O)CC[C@H](NC(=O)CC[C@H](NC(=O)CCCCCCCCCCCCCCCCC(=O)O)C(=O)O)C(=O)O)C(=O)N[C@@H](CC(N)=O)C(=O)N[C@@H]([C@@H](C)O)C(=O)N[C@@H](C)C(=O)N[C@@H]([C@@H](C)O)C(=O)N1)[C@@H](C)O)C(C)C)C(=O)N[C@@H](CC(C)C)C(=O)N1CCC[C@H]1C(=O)N1CCC[C@H]1C(=O)N[C@H](C(=O)N[C@@H](CC(N)=O)C(=O)N[C@H](C(=O)NCC(=O)N[C@@H](CO)C(=O)N[C@@H](CCCNC(=N)N)C(=O)N[C@H](C(=O)N[C@@H](Cc1ccc(O)cc1)C(N)=O)[C@@H](C)O)C(C)C)[C@@H](C)O
EC50 (cAMP production) [1]: 227 pM | Ratio (EC50 hCTR / EC50 hAMYR3) [1]: 18 | EC50 (cAMP production) [2]: 4000 pM

B3: Peptide 73 (SEQ ID NO: 73) (peptide)
peptide: K([γGlu-C18 diacid])KCNTATCATQRLANFLVHSS[Aib]NFGPILPPTNVGSRTY-NH2
modifications: disulfide 3-8; N-terminus assumed
SMILES: CC[C@H](C)[C@H](NC(=O)[C@@H]1CCCN1C(=O)CNC(=O)[C@H](Cc1ccccc1)NC(=O)[C@H](CC(N)=O)NC(=O)C(C)(C)NC(=O)[C@H](CO)NC(=O)[C@H](CO)NC(=O)[C@H](Cc1c[nH]cn1)NC(=O)[C@@H](NC(=O)[C@H](CC(C)C)NC(=O)[C@H](Cc1ccccc1)NC(=O)[C@H](CC(N)=O)NC(=O)[C@H](C)NC(=O)[C@H](CC(C)C)NC(=O)[C@H](CCCNC(=N)N)NC(=O)[C@H](CCC(N)=O)NC(=O)[C@@H](NC(=O)[C@H](C)NC(=O)[C@@H]1CSSC[C@H](NC(=O)[C@H](CCCCN)NC(=O)[C@@H](N)CCCCNC(=O)CC[C@H](NC(=O)CCCCCCCCCCCCCCCCC(=O)O)C(=O)O)C(=O)N[C@@H](CC(N)=O)C(=O)N[C@@H]([C@@H](C)O)C(=O)N[C@@H](C)C(=O)N[C@@H]([C@@H](C)O)C(=O)N1)[C@@H](C)O)C(C)C)C(=O)N[C@@H](CC(C)C)C(=O)N1CCC[C@H]1C(=O)N1CCC[C@H]1C(=O)N[C@H](C(=O)N[C@@H](CC(N)=O)C(=O)N[C@H](C(=O)NCC(=O)N[C@@H](CO)C(=O)N[C@@H](CCCNC(=N)N)C(=O)N[C@H](C(=O)N[C@@H](Cc1ccc(O)cc1)C(N)=O)[C@@H](C)O)C(C)C)[C@@H](C)O
EC50 (cAMP production) [1]: 256 pM | Ratio (EC50 hCTR / EC50 hAMYR3) [1]: 7 | EC50 (cAMP production) [2]: 1820 pM

B4: Peptide 74 (SEQ ID NO: 74) (peptide)
peptide: K([γGlu-γGlu-C18 diacid])KCNTATCATQRLANFLVHSS[Aib]NFGPILPPTNVGSRTY-NH2
modifications: disulfide 3-8; N-terminus assumed
SMILES: CC[C@H](C)[C@H](NC(=O)[C@@H]1CCCN1C(=O)CNC(=O)[C@H](Cc1ccccc1)NC(=O)[C@H](CC(N)=O)NC(=O)C(C)(C)NC(=O)[C@H](CO)NC(=O)[C@H](CO)NC(=O)[C@H](Cc1c[nH]cn1)NC(=O)[C@@H](NC(=O)[C@H](CC(C)C)NC(=O)[C@H](Cc1ccccc1)NC(=O)[C@H](CC(N)=O)NC(=O)[C@H](C)NC(=O)[C@H](CC(C)C)NC(=O)[C@H](CCCNC(=N)N)NC(=O)[C@H](CCC(N)=O)NC(=O)[C@@H](NC(=O)[C@H](C)NC(=O)[C@@H]1CSSC[C@H](NC(=O)[C@H](CCCCN)NC(=O)[C@@H](N)CCCCNC(=O)CC[C@H](NC(=O)CC[C@H](NC(=O)CCCCCCCCCCCCCCCCC(=O)O)C(=O)O)C(=O)O)C(=O)N[C@@H](CC(N)=O)C(=O)N[C@@H]([C@@H](C)O)C(=O)N[C@@H](C)C(=O)N[C@@H]([C@@H](C)O)C(=O)N1)[C@@H](C)O)C(C)C)C(=O)N[C@@H](CC(C)C)C(=O)N1CCC[C@H]1C(=O)N1CCC[C@H]1C(=O)N[C@H](C(=O)N[C@@H](CC(N)=O)C(=O)N[C@H](C(=O)NCC(=O)N[C@@H](CO)C(=O)N[C@@H](CCCNC(=N)N)C(=O)N[C@H](C(=O)N[C@@H](Cc1ccc(O)cc1)C(N)=O)[C@@H](C)O)C(C)C)[C@@H](C)O
EC50 (cAMP production) [1]: 356 pM | Ratio (EC50 hCTR / EC50 hAMYR3) [1]: 13 | EC50 (cAMP production) [2]: 4570 pM

B5: Peptide 70 (SEQ ID NO: 70) (peptide)
peptide: K([γGlu-γGlu-C18 diacid])KCNTATCATQRLANFLVHSS[Aib]NFGPILPPTRVGSNTY-NH2
modifications: disulfide 3-8; N-terminus assumed
SMILES: CC[C@H](C)[C@H](NC(=O)[C@@H]1CCCN1C(=O)CNC(=O)[C@H](Cc1ccccc1)NC(=O)[C@H](CC(N)=O)NC(=O)C(C)(C)NC(=O)[C@H](CO)NC(=O)[C@H](CO)NC(=O)[C@H](Cc1c[nH]cn1)NC(=O)[C@@H](NC(=O)[C@H](CC(C)C)NC(=O)[C@H](Cc1ccccc1)NC(=O)[C@H](CC(N)=O)NC(=O)[C@H](C)NC(=O)[C@H](CC(C)C)NC(=O)[C@H](CCCNC(=N)N)NC(=O)[C@H](CCC(N)=O)NC(=O)[C@@H](NC(=O)[C@H](C)NC(=O)[C@@H]1CSSC[C@H](NC(=O)[C@H](CCCCN)NC(=O)[C@@H](N)CCCCNC(=O)CC[C@H](NC(=O)CC[C@H](NC(=O)CCCCCCCCCCCCCCCCC(=O)O)C(=O)O)C(=O)O)C(=O)N[C@@H](CC(N)=O)C(=O)N[C@@H]([C@@H](C)O)C(=O)N[C@@H](C)C(=O)N[C@@H]([C@@H](C)O)C(=O)N1)[C@@H](C)O)C(C)C)C(=O)N[C@@H](CC(C)C)C(=O)N1CCC[C@H]1C(=O)N1CCC[C@H]1C(=O)N[C@H](C(=O)N[C@@H](CCCNC(=N)N)C(=O)N[C@H](C(=O)NCC(=O)N[C@@H](CO)C(=O)N[C@@H](CC(N)=O)C(=O)N[C@H](C(=O)N[C@@H](Cc1ccc(O)cc1)C(N)=O)[C@@H](C)O)C(C)C)[C@@H](C)O
EC50 (cAMP production) [1]: 235 pM | Ratio (EC50 hCTR / EC50 hAMYR3) [1]: 23 | EC50 (cAMP production) [2]: 5400 pM

B6: Peptide 75 (SEQ ID NO: 75) (peptide)
peptide: K([γGlu-γGlu-C18 diacid])CNTATCATQRLANFLRHSS[Aib]NFGPILPPTNVGSNTY-NH2
modifications: disulfide 2-7; N-terminus assumed
SMILES: CC[C@H](C)[C@H](NC(=O)[C@@H]1CCCN1C(=O)CNC(=O)[C@H](Cc1ccccc1)NC(=O)[C@H](CC(N)=O)NC(=O)C(C)(C)NC(=O)[C@H](CO)NC(=O)[C@H](CO)NC(=O)[C@H](Cc1c[nH]cn1)NC(=O)[C@H](CCCNC(=N)N)NC(=O)[C@H](CC(C)C)NC(=O)[C@H](Cc1ccccc1)NC(=O)[C@H](CC(N)=O)NC(=O)[C@H](C)NC(=O)[C@H](CC(C)C)NC(=O)[C@H](CCCNC(=N)N)NC(=O)[C@H](CCC(N)=O)NC(=O)[C@@H](NC(=O)[C@H](C)NC(=O)[C@@H]1CSSC[C@H](NC(=O)[C@@H](N)CCCCNC(=O)CC[C@H](NC(=O)CC[C@H](NC(=O)CCCCCCCCCCCCCCCCC(=O)O)C(=O)O)C(=O)O)C(=O)N[C@@H](CC(N)=O)C(=O)N[C@@H]([C@@H](C)O)C(=O)N[C@@H](C)C(=O)N[C@@H]([C@@H](C)O)C(=O)N1)[C@@H](C)O)C(=O)N[C@@H](CC(C)C)C(=O)N1CCC[C@H]1C(=O)N1CCC[C@H]1C(=O)N[C@H](C(=O)N[C@@H](CC(N)=O)C(=O)N[C@H](C(=O)NCC(=O)N[C@@H](CO)C(=O)N[C@@H](CC(N)=O)C(=O)N[C@H](C(=O)N[C@@H](Cc1ccc(O)cc1)C(N)=O)[C@@H](C)O)C(C)C)[C@@H](C)O
EC50 (cAMP production) [1]: 161 pM | Ratio (EC50 hCTR / EC50 hAMYR3) [1]: 99 | EC50 (cAMP production) [2]: 16000 pM
